In patent US20250025505A1 (BIONTECH, published 2025):

Assays:
Experiment in all cases: recognition by CLDN6 CAR-T cells, non-clinical study; assay not described
[1] = target: T1, CLDN3 (UniProt O15551 1-220, limits assumed)
T1 construct: also called claudin 3
T1 sequence (looked up): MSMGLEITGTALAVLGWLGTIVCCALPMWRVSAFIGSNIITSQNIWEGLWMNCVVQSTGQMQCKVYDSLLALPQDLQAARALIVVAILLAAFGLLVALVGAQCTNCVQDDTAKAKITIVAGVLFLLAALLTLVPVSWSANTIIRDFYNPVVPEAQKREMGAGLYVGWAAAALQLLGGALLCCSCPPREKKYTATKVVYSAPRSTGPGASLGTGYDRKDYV

[2] = target: T2, CLDN4 (UniProt O14493 1-209, limits assumed)
T2 construct: also called claudin 4
T2 sequence (looked up): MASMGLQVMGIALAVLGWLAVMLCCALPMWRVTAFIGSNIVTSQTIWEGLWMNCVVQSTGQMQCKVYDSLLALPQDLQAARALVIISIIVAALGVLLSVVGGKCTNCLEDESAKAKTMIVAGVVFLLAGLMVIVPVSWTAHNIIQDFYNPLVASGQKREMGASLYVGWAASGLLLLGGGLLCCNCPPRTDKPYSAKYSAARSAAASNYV

[3] = target: T3, CLDN9 (UniProt O95484 1-217, limits assumed)
T3 construct: also called claudin 9
T3 sequence (looked up): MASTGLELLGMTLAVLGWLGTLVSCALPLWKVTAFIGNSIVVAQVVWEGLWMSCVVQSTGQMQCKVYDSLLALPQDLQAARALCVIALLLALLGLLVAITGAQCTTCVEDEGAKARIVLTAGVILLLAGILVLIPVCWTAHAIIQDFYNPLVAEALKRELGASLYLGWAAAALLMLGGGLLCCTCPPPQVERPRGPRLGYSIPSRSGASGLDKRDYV

Measured: binding result

B1: CLDN6-CAR-CD8h-BBz (other)
chain: EVQLQQSGPELVKPGASMKISCKASGYSFTGYTMNWVKQSHGKNLEWIGLINPYNGGTIYNQKFKGKATLTVDKSSSTAYMELLSLTSEDSAVYYCARDYGFVLDYWGQGTTLTVSSGGGGSGGGGSGGGGSDIVLTQSPSIMSVSPGEKVTITCSASSSVSYMHWFQQKPGTSPKLSIYSTSNLASGVPARFSGRGSGTSYSLTISRVAAEDAATYYCQQRSNYPPWTFGGGTKLEIKRSDPATTTPAPRPPTPAPTIASQPLSLRPEACRPAAGGAVHTRGLDFACDIYIWAPLAGTCGVLLLSLVITLYCKRGRKKLLYIFKQPFMRPVQTTQEEDGCSCRFPEEEEGGCELRVKFSRSADAPAYKQGQNQLYNELNLGRREEYDVLDKRRGRDPEMGGKPRRKNPQEGLYNELQKDKMAEAYSEIGMKGERRRGKGHDGLYQGLSTATKDTYDALHMQALPPR
notes: Chimeric antigen receptor, tested on the surface of retrovirally transduced human (or murine) T cells; also called CLDN6-CAR-BBz
no binding: all assays above
